Laboratory results as given in the supplement of paper PMC10567573.

B1: SMOC2 (parent)
chain: PALETQPQGDEEDIASRYPTLWTE
B2: CCND1 (parent)
chain: IRRAYPDANLLNDRVLRAMLKAEE
B3: TSN (parent)
chain: FVELQGFLAAEQDIREEIRKVVQS

Variants of: B1
Assay: protein stability index of a GFP-peptide fusion (GPS, HEK-293T) (PSI 1-6); higher = more stable
Conditions: c terminus: a fixed tail appended
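Also: lentivirally expressed fusions sorted by FACS into six bins by GFP to DsRed ratio, PSI derived from sequencing read proportions per bin multiplied by bin number.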

Protein stability index of substitutions, site by site:
E24: I 3.97 | G 5.22 | N 3.73 | M 3.94 | C 4.22 | P 5.1 | F 4.17 | V 4.22 | W 4.17 | D 4.68 | S 4.78 | R 4.81 | K 5.17 | A 4.67 | Q 4.82 | H 4.47 | T 4.65 | Y 4.41 | L 4.19
T20: R 3.88 | P 4.78 | I 3.3 | M 4.4 | N 4.27 | W 4.67 | L 4.66 | V 3.99 | Y 4.1 | K 4.37 | Q 3.83
T23: A 4.21 | V 2.74 | D 5.55 | Q 4.43 | H 5.75 | E 5.39 | S 5.28 | P 5.28 | K 4.58 | N 5.66 | Y 5.37 | F 5.22 | I 4.28 | C 5.02 | M 5.08 | L 5.29 | R 5.13 | W 5.08
W22: E 5.2 | C 5.32 | P 5.92 | I 5.58 | D 5.62 | M 5.49 | Y 4.73 | V 5.9 | N 5.8 | R 5.39 | F 5.71 | H 5.48 | T 5.67 | K 5.3 | Q 5.51 | A 5.45 | L 5.78 | G 4.47 | S 5.77
L21: W 5.13 | N 5.73 | S 4.75 | E 5.39 | I 5.53 | Y 3.92 | R 4.91 | H 5.91 | K 5.12 | D 5.72 | A 5.65 | M 5.37 | C 4.64 | F 4.27 | V 4.75 | T 3.98 | Q 5.66 | P 5.64

Variants of: B2
Assay: as above
Conditions: c terminus: a fixed tail appended

Protein stability index, by site and new letter:
I1: H 3.25 | C 2.41 | K 2.99 | P 3.34 | L 2.5 | A 2.77 | N 3.69

Variants of: B3
Assay: as above
Conditions: c terminus: a fixed tail appended

Protein stability index, by site and new letter:
Q23: M 1.98 | I 1.25 | T 2.38 | D 3.47 | L 1.92 | W 1.65 | C 3.33 | F 2.61
V21: D 2.52 | E 1.55 | G 1.69 | A 1.29 | S 1.45 | I 3.69 | M 1.21 | Y 1.68 | N 2.47 | T 3.32 | P 2.51 | W 2.27 | K 1.79 | Q 2.13
K20: G 1.7 | R 1.99 | P 2.1 | T 1.89 | I 3.91 | L 1.83 | C 2.75 | Y 2.21 | A 2.27 | H 1.94 | S 1.96 | M 1.89
L4: Q 1.35 | I 1.79 | D 2.22 | M 2.15 | W 1.21 | K 1.8 | N 1.43 | R 1.97 | T 3.35 | H 1.52 | E 2.17
V22: P 3.2 | I 3.83 | K 1.62 | C 3 | L 1.97 | F 2.67 | W 2.27 | H 2.65 | Q 4.66 | E 2.23 | G 1.55 | R 1.7 | M 1.42
A9: Q 1.63 | N 2.25 | W 3.23 | R 1.93 | P 1.02 | I 2.48 | E 2.47 | M 1.78 | G 1.62 | L 1.57 | K 1.73
S24: Q 1.97 | G 2.37 | E 1.72 | L 3.92 | K 1.42
L8: P 2.99 | Q 1.37 | D 2.68 | N 2.31 | G 1.07 | K 1.72 | R 3.58 | Y 1.8 | E 2.44 | S 1.47 | M 2.07 | C 1.83
F7: D 2.84 | M 2.01 | V 2.04 | Y 1.33 | A 1.64 | C 2.68 | E 3.11 | T 2 | R 2.04 | N 2.71 | G 2.33 | H 2.14 | K 1.31
E17: M 2.49 | R 1.48 | G 2.42 | H 2.3 | V 2.91 | Y 1.93 | L 2.69
V2: K 3.83 | Y 2.31 | S 1.65 | M 2.3 | E 3.95 | W 1.33 | R 3.34 | P 2.47 | Q 1.17 | A 2.37 | I 1.51 | F 1.75 | T 1.68 | L 1.67 | D 4.19 | N 3.06 | G 1.75
D13: H 2.78 | F 1.85 | A 3.62 | S 1.52 | N 3.27 | M 2.91
R15: E 2.06 | Y 1.76 | L 2.35 | M 1.83 | H 1.91 | C 1.82 | N 1.03 | D 1.26 | S 1.98 | G 1.41 | W 1.39
I18: D 1.62 | F 2.06 | S 1.75 | Y 2.13 | R 1.68 | H 1.24 | P 3.43 | A 1.82 | L 2.87
E3: M 2.97 | Y 1.64 | F 1.6 | S 2.08 | N 2.45 | R 1.25 | P 1.53 | T 2.59 | W 1.75 | C 2.23 | K 1.4 | Q 2.4 | H 2.9
R19: Q 3.16 | S 3.87 | I 1.78 | N 2.38 | Y 1.46 | A 2.44 | K 2.67 | V 1.97 | T 2.25 | G 3 | C 2.32 | D 1.6
G6: S 1.85 | T 2.32 | F 1.68 | I 2.19 | N 2.42 | E 2.06 | M 2.16 | C 1.56
Q5: K 2.12 | D 1.23 | A 1.58 | W 1 | V 2.38 | C 5.07
E11: D 1.39 | W 3.13 | R 2.52 | Y 2.09 | C 1.92 | A 1.05 | N 2.16 | K 2.13 | I 1.86 | F 1.29 | L 2.02
F1: T 3.62 | Y 3.21 | L 4.18 | W 1.14 | H 3.96 | I 2.08 | A 3.48 | R 3.12 | C 3.1 | G 3.24 | N 3.67 | K 3.83 | P 2.9
A10: F 2.15 | I 2.04 | D 1.35 | E 4.05 | H 1.74 | C 1.04 | K 1.62 | M 2.2 | R 1.8
E16: S 1.18 | T 1.14 | H 1.34 | D 3.34 | R 2.3 | L 1.76
Q12: R 3.99 | M 2.17 | C 1.92 | P 1.39 | E 3.62 | A 3.3 | V 2.6 | K 2.24
I14: W 2.36 | T 2.01 | A 2.73 | R 1.64 | D 1.4 | E 3.21 | Y 1.23
